Test results as given in the DeepSol protein solubility set.

Experiment: soluble on expression in E. coli; label from the status in PepcDB or PDB records

Sequence	soluble on expression in E. coli
MNNVTFEQLQETLYHEKLANGLDVYILPKTGFNKTYATFTTKYGSIDSEFIPLNQKEALHVPDGIAHFLEHKMFEDEEGDVFQLFSKQGASCNAFTSFTRTAYLFSSTTNVKKNVETLLDFVQHPYFTEESVEKEKGIIGQEITMYDDNPDWRNYFGVIENMYEHHPVKIDIAGTIPSISKITKDLLYTCYETFYHPSNMLLFIVGPVDVNEMMTLVKENQGKKEFKPAGDIQRFFPAEPEKVAKPHSVISMSVQTPKCLVGYKEKQPVRQGKDLLVRELGINVLLELMFGQGSKQYEQLDDEGLINDTFSFDHTSEYGFGFTIMGGDTKSPNRLAERIEEMVEAFKEQPLDEAAVKRVIKKKIGGFLRSLNSPEFIANQFTRYEFNKMNLFDVVPTLESLTVEKLTDILHDHFQKERFTVCQVKPEGYEEG	not soluble
MSRFWSRWYSGLVSCTARVIMIDLNHLDTIANRLSDLLPPALYESRGELQTLFKDVLQAGLAKLDLVTREEFEIQRVILLSTREKLETLLHTLVLLEDRLTDQGKNLEHHHHHH	not soluble
MAHHHHHHMQFVVVDGSWPVVPCAIPRSQLLARSVKDTDHGEDGGGQSVLPGHALFTLCQEVLDTSASKTKAPPELATLDMTFLRDPQSGPLGALRLYTFKSVSHQFFAVEDLVSSGCLIVFTSHWASLTSAALLTGVRTTHKEKDDSAKSSRRRIENNTGSGTREVSASRASSLMGRGRSVLQKFSRAETYFTSVASATQRDFEMVNELLLSGTIRMNAHLESFLCSVCGNLPRRTMTTSCCGAVVCLLCAPTLSSSSVLREEVVCAVCGEMPLTNPEAHVSRDAEVMRLVRELRVLYHPQVSAAACRAMPGETQPPPTPFNVHHAGLPVPICDMNEPTGSVLGSVFMGPS	not soluble
MERKKAVVLLSGGLDSSTVLAYAISLGYEVHAISFDYGQRHSREMNSSEELAKYYGVDRKIVHVDLRSIGKSALTDDIEVPSRDLESIPEEIPVTYVPARNTIFLSIAAAYAESIGSTDIFIGANAIDYSGYPDCRPEYFNAMEKALTLGTEIGLRKGMHINVPLQYLTKADIIRMGLKLGVPYEKTWSCYKGGEKACGECDSCLLRLKGFMEAGSEDPLEYEKYPTFYKDYIEKRKK	soluble
SNGRADFREPNAQVSRPIPDIGGGYIPTEEEWRLFAECHEECFWFRSVPLAATSMLITQGLISKGILSSHPKYGSIPKLIFACIVGYFAGKLSYVKTCQEKFKKLENSPLGEALRSGELRRSLPPGHYTQKPKYDSNVSGQSSFGTSPAADNIEKETLPRYEPIPFSASMNESTPTGITDHIAQGPDPNLEDSPKRKSVTYEELRNKNRESYGVTLSHKTDPSVRPMQERGPQKEVKVNKYGDTWDE	soluble
MKIVCIGAAPTALGAAYRLNELKNEGNEAAQNAEIVLLEQEAIAGGLSCTVTDEKGFLWDMGGHITFNHNYPYYEKATQWAVDDWNKLARNCMVDMNYLYDKKGIHLVPYPAQFAVPLFPDEVKNRCLADLKERYENPQDGTTPDNFEEWVLQHFGPTILNTFFKPYTKKVWTVEPLKMSPNWVGSRVAKLPQEKLEELCSMDQAELANADFGWGPNSYFTFPTYGGTGNVWNSMAKKLPNEWFKFNNKVTGVDHKEKTVEILEKGQTEPTKMSYDVLLNTAPIDQLVNNTQITAPLDIVHNKVFIVGVGLRKPMTSFLEKFTWLYFPDREVPFFRVTILSRYGEVTPDGDKYWSVMCECARPIDDPITEEEMVKKTLDGLVIKDMITREAIESVYSITLPYGYPIPTPNRDRELARAHGELERHQIYSRGRFGGWKYEASNQDHCFIQGKEFIDRVILGEPEKLYKTGVPTIPRGAAALEHHHHHH	soluble
MAHHHHHHMDKYTKVKNIGKGNMGTCTLARNNEDGKYYVIKQVDLTRMSKKDRQQSLNEARVLSSLRHPNIINYVDSFLARKSDNLCIVMEYAESGDVCTRLKKHYGVNVPERQVVDWLIQLVLSLDYVHQRKILHRDVKTQNIFLTHENLIKLGDFGIARTLANTYDQAQTFVGTPYYLSPELILEQPYDHRSDVWALGVVLYEMLTLKHPFNAKDMKGLLQRILAVHYDPLPTMYSAELRDIVARMLVRDPAGRIKLDEILQIPIVRERIRQWLKEPDVVPQHYVRSLCKHHLLPDFQDEATAMPSTRSAARAAAAMAHEEWRTTSEATSAQTDGDVCARKDTDTRPHVTLGGPFSIPSTAARTAAAVCTSSADEESSDGVRPSIPPLKPYSNLPQLGMASPQLYTPQLPQMHPRVQSNNRASSPSRLFRSPFSTPSVARSAALPISRQQGDPVSQSSPAPLPLQRPIARAKAPTRPYARPYVAQPHLSPSPGYLFAANPRKNPIDARRQQSSRPSGPYLNPLFAAPRQMAPAYRSLVPPLPPPPDIKAMLQRAAAERARR	not soluble
GPNANPIPEHFFAPYIDMSLSVHKPLVEYAKLTGTKYFTLAFILYSSVYNGPAWAGSIPLEKFVDEVRELREIGGEVIIAFGGAVGPYLCQQASTPEQLAEWYIKVIDTYNATYLDFDIAAGIDADKLADALLIVQRERPWVKFSFTLPSDPGIGLAGGYGIIETMAKKGVRVDRVNPMTMDYYWTPSNAENAIKVAENVFRQLKQIYPEKSDEEIWKMIGLTPMIGVNDDKSVFTLEDAQQLVDWAIQHKIGSLAFWSVDRDHPGPTGEVSPLHRGTNDPDWAFSHVFVKFMEAFGYTFSAQTSEASVPT	soluble
MAQNLPTIALLATGGTIAGSGVDASLGSYKSGELGVKELLKAIPSLNKIARIQGEQVSNIGSQDMNEEIWFKLAQRAQELLDDSRIQGVVITHGTDTLEESAYFLNLVLHSTKPVVLVGAMRNASSLSADGALNLYEAVSVAVNEKSANKGVLVVMDDTIFSVREVVKTHTTHVSTFKALNSGAIGSVYYGKTRYYMQPLRKHTTESEFSLSQLKTPLPKVDIIYTHAGMTPDLFQASLNSHAKGVVIAGVGNGNVSAGFLKAMQEASQMGVVIVRSSRVGSGGVTSGEIDDKAYGFITSDNLNPQKARVLLQLALTKTNDKAKIQEMFEEY	soluble
MVFSGPASPGLTLAPLRRGGIDPCYRVDAAGAIWRTSLMPSGPVTARITRAATDAADCQAWGEGADEFIDRLPALLGVDDDASDFAPAEPTIAKARRQVPHLRLGRTGRMLEALIPAIIEQRVYGLDAWRAWRALVTKFGTPAPGPAPDGMRVVPSAEVWRRIPSWEFHRANVDPGRARTIVMCAQRADSLERLTHERAAVTLRSLPGVGEWTAAETMQRVFGDADALSAGDYHLATLVGQALTGEPVDDAGMVELLEPMRPHRHRAVRLLEASGMFVYRRRGARQAIPKLRTL	not soluble
MGSDKIHHHHHHMRFAPPNPLRIADRASGLNSLSVRSYNERLVLSLLLQNEATTRLEIGEKTGLSAQTISVIVRSLEQEGLVVRGEAQKGRVGPPTTPLMLNSEGAYSVGVSVGYHNTHIVVVDFIGNVQHHRVMPHKAADTFDAPEALALEIRLAVAGLSESRQARIAGVGLALPTPPIRSEPDHDVLHRYLEAEFGLPVFVQNDITAAAGGESLFGTARQLQDFLFFYLGARLHCRLVLNHQIYNGNSPLSYDVGVLALERRLPADSAMAEKLWGQDLSWPPLEATLADWQQACAENLIQLTQSLLQFIELRTVVLSSFVPAAICEALCRLVRQEIPSVNAVVGRTSAAPKAVGAASLPFSSRFMVN	not soluble
MKIAVLGATGRAGSAIVAEARRRGHEVLAVVRDPQKAADRLGATVATLVKEPLVLTEADLDSVDAVVDALSVPWGSGRGYLHLDFATHLVSLLRNSDTLAVFILGSASLAMPGADHPMILDFPESAASQPWYDGALYQYYEYQFLQMNANVNWIGISPSEAFPSGPATSYVAGKDTLLVGEDGQSHITTGNMALAILDQLEHPTAIRDRIVVRLEHHHHHH	not soluble
MFIRGREMISAVIEALIGSISLSTGLHTKKIDANIRYLQQYEWFRIIYEDEKYRKLFITNYKVRSYLQSKLRVRLLVKNKNAQRRFLKLVEEQIEKRHTN	not soluble
MTRIAIVGAGPAGLSLAYFLKGSRKVEATVYESMPEPGLKPCAWGLITGIENIIPIPNETIISEIRGFRIYLDNKLVFDIRTDNKLGYIIDKPLFLKRLSQEVNVEFNSKVVKKDDKYYINDKSLDHDKVIFATGHYSVSKSMSIPAIQYITDYEIDKEVVEFYFYSGFLGYAWVFPDREGSKIGIGGYAEVPELKERLKQILKGRIRTFHGARVTDYGVIEDRLDGNYTGEALGTVYAITGEGIRPSIISSKILADSILNRKDFKKEFKKSKLYWSLNWHAKIIKMTKENDPGTARLSKALLNNDPQLILKFAIGEFNRVDLIKIFGRSLILEHHHHHH	soluble
